Measured values: publication doi:10.1101/2022.05.13.491800 (bioRxiv, 2022)

B1: Smc5 (natural protein, S. cerevisiae, UniProt Q08204 1-1093, looked up)
chain: MTSLIDLGRYVERTHHGEDTEPRSKRVKIAKPDLSSFQPGSIIKIRLQDFVTYTLTEFNLSPSLNMIIGPNGSGKSTFVCAVCLGLAGKPEYIGRSKKVEDFIKNGQDVSKIEITLKNSPNVTDIEYIDARDETIKITRIITRSKRRSDYLINDYQVSESVVKTLVAQLNIQLDNLCQFLSQERVEEFARLKSVKLLVETIRSIDASLLDVLDELRELQGNEQSLQKDLDFKKAKIVHLRQESDKLRKSVESLRDFQNKKGEIELHSQLLPYVKVKDHKEKLNIYKEEYERAKANLRAILKDKKPFANTKKTLENQVEELTEKCSLKTDEFLKAKEKINEIFEKLNTIRDEVIKKKNQNEYYRGRTKKLQATIISTKEDFLRSQEILAQTHLPEKSVFEDIDIKRKEIINKEGEIRDLISEIDAKANAINHEMRSIQRQAESKTKSLTTTDKIGILNQDQDLKEVRDAVLMVREHPEMKDKILEPPIMTVSAINAQFAAYLAQCVDYNTSKALTVVDSDSYKLFANPILDKFKVNLRELSSADTTPPVPAETVRDLGFEGYLSDFITGDKRVMKMLCQTSKIHTIPVSRRELTPAQIKKLITPRPNGKILFKRIIHGNRLVDIKQSAYGSKQVFPTDVSIKQTNFYQGSIMSNEQKIRIENEIINLKNEYNDRKSTLDALSNQKSGYRHELSELASKNDDINREAHQLNEIRKKYTMRKSTIETLREKLDQLKREARKDVSQKIKDIDDQIQQLLLKQRHLLSKMASSMKSLKNCQKELISTQILQFEAQNMDVSMNDVIGFFNEREADLKSQYEDKKKFVKEMRDTPEFQSWMREIRSYDQDTKEKLNKVAEKYEEEGNFNLSFVQDVLDKLESEIAMVNHDESAVTILDQVTAELRELEHTVPQQSKDLETIKAKLKEDHAVLEPKLDDIVSKISARFARLFNNVGSAGAVRLEKPKDYAEWKIEIMVKFRDNAPLKKLDSHTQSGGERAVSTVLYMIALQEFTSAPFRVVDEINQGMDSRNERIVHKAMVENACAENTSQYFLITPKLLTGLHYHEKMRIHCVMAGSWIPNPSEDPKMIHFGETSNYSFD
B2: Smc6 (natural protein, S. cerevisiae, UniProt Q12749 1-1114, looked up)
chain: MISTTISGKRPIEQVDDELLSLTAQQENEEQQQQRKRRRHQFAPMTQFNSNTLDEDSGFRSSSDVATADQDNFLEESPSGYIKKVILRNFMCHEHFELELGSRLNFIVGNNGSGKSAILTAITIGLGAKASETNRGSSLKDLIREGCYSAKIILHLDNSKYGAYQQGIFGNEIIVERIIKRDGPASFSLRSENGKEISNKKKDIQTVVDYFSVPVSNPMCFLSQDAARSFLTASTSQDKYSHFMKGTLLQEITENLLYASAIHDSAQENMALHLENLKSLKAEYEDAKKLLRELNQTSDLNERKMLLQAKSLWIDVAHNTDACKNLENEISGIQQKVDEVTEKIRNRQEKIERYTSDGTTIEAQIDAKVIYVNEKDSEHQNARELLRDVKSRFEKEKSNQAEAQSNIDQGRKKVDALNKTIAHLEEELTKEMGGDKDQMRQELEQLEKANEKLREVNNSLVVSLQDVKNEERDIQHERESELRTISRSIQNKKVELQNIAKGNDTFLMNFDRNMDRLLRTIEQRKNEFETPAIGPLGSLVTIRKGFEKWTRSIQRAISSSLNAFVVSNPKDNRLFRDIMRSCGIRSNIPIVTYCLSQFDYSKGRAHGNYPTIVDALEFSKPEIECLFVDLSRIERIVLIEDKNEARNFLQRNPVNVNMALSLRDRRSGFQLSGGYRLDTVTYQDKIRLKVNSSSDNGTQYLKDLIEQETKELQNIRDRYEEKLSEVRSRLKEIDGRLKSTKNEMRKTNFRMTELKMNVGKVVDTGILNSKINERKNQEQAIASYEAAKEELGLKIEQIAQEAQPIKEQYDSTKLALVEAQDELQQLKEDINSRQSKIQKYKDDTIYYEDKKKVYLENIKKIEVNVAALKEGIQRQIQNACAFCSKERIENVDLPDTQEEIKRELDKVSRMIQKAEKSLGLSQEEVIALFEKCRNKYKEGQKKYMEIDEALNRLHNSLKARDQNYKNAEKGTCFDADMDFRASLKVRKFSGNLSFIKDTKSLEIYILTTNDEKARNVDTLSGGEKSFSQMALLLATWKPMRSRIIALDEFDVFMDQVNRKIGTTLIVKKLKDIARTQTIIITPQDIGKIADIDSSGVSIHRMRDPERQNNSNFYN
B3: Nse5 (natural protein, S. cerevisiae, UniProt Q03718 1-556, looked up)
chain: MDGALINSVLYVSPRNGAHYFVELTEKHLLAFEMLNSMCLLENYDHVLLFLECQFGKSHNLAVIPFDIILVLFTLSTLSEYYKEPILRANDPYNTSRETLSRRALKLLQKYLAILKEFDSEQYNLYDLELLRCQFFLAIDTLTPKKQKWGFDRFRRTKSESGVTYRQNASVDPELDQAKTFKNPYRSYISCLEQRNTILGNRLLNLKLNEPGEFINMILWTLSNSLQESTPLFLSSHEIWMPLLEILIDLFSCRQDYFIQHEVAQNVSKSLFVQRLSESPLAVFFESLNTRNFANRFSEYVFLNCDYKLPSDNYATPVHPVYNGENTIVDTYIPTIKCSPLYKSQKSLALRRKLIGSCFKLLLRVPDGHRLITPRIVADDVIQGISRTLASFNDILQFKKFFMTENLSQESYFIPLLAEGTLSEILKDTQECVVILTLVENLSDGVSFCNEVIGLVKSKCFAFTEQCSQASYEEAVLNIEKCDVCLLVLLRYLLHLIGTEAILDAKEQLEMLHAIEKNDSGRRQWAKALNLGNDPPLLYPIVSQMFGVHDKSVIIE
B4: Nse6 (natural protein, S. cerevisiae, UniProt P40026 1-464, looked up)
chain: MGSVNSSPNEEFETVPDSQISGFDSPLIPTSVGSYFRDDDDDEKVHPNFISDPENDSLNSDEEFSSLENSDLNLSGAKAESGDDFDPILKRTIISKRKAPSNNEDEEIVKTPRKLVNYVPLKIFNLGDSFDDTITTTVAKLQDLKKEILDSPRSNKSIVITSNTVAKSELQKSIKFSGSIPEIYLDVVTKETISDKYKDWHFISKNCHYEQLMDLEMKDTAYSFLFGSSRSQGKVPEFVHLKCPSITNLLVLFGVNQEKCNSLKINYEKKENSRYDNLCTIFPVNKMLKFLMYFYSDDDNDDVREFFLKAFICLILDRKVFNAMESDHRLCFKVLELFNEAHFINSYFEIVDKNDFFLHYRLLQIFPHLQSALLRRRFSEKQGRTETIQQNIIKEFNEFFDCKNYKNLLYFILTMYGSKFIPFGPKCQVTEYFKDCILDISNETTNDVEISILKGILNLFSKIR

Assays:
Smc6 = biological target: B2; assay: co-purification
Smc5 = biological target: B1; assay: SEC

binding result (Smc6)	stoichiometry N (Smc5)	Binder
binds		B1
	~1	B2
	~1	B3
	~1	B4
